Molecular target: T1, Elk-1 (human, UniProt P19419 1-428)
T1 sequence: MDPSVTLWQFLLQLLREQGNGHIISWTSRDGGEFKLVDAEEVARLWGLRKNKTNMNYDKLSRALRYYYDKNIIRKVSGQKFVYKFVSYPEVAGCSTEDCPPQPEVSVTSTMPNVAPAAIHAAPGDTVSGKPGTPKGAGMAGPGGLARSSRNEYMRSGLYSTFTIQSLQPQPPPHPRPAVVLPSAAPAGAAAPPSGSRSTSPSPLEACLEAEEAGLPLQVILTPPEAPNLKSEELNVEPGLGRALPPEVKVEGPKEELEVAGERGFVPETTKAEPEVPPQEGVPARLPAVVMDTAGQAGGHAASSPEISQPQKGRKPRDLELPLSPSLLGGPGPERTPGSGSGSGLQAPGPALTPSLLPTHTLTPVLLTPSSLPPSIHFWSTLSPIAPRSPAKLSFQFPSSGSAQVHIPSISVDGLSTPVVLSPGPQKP
Experiment: EMSA; 1 ug Elk-1, 10 mM MgCl2, no poly(dI-dC); 50 mM HEPES pH 7.5, 10 mM MgCl2, 5% glycerol, 1 mM DTT, 0.3% BSA, 1 mM EDTA; 1 h on ice; 6% gel (HEPES buffer pH 6.3), no poly(dI-dC)
Conditions: protein: commercial; blunt

B1: GRIN2B A allele (rs3764030 A) (dsDNA)
DNA 1: CATCTCCGGGGAACACGCGAA
DNA 2: TTCGCGTGTTCCCCGGAGATG
- binding result: binds

— article PMC5425128, “Functional human GRIN2B promoter polymorphism and variation of mental processing speed in older adults”
